The supplement of paper PMC5998384

Legend:
HeLa Kyoto [1] = experiment: solubility in G1/S (NP-40 vs SDS abundance) (log2 ratio); higher = more soluble; conditions: cell cycle stage: G1/S
HeLa Kyoto [2] = experiment: melting temperature (median over replicates), in situ; higher = more thermally stable
HeLa Kyoto [3] = experiment: solubility change mitosis vs G1/S (difference of NP-40 vs SDS log2 ratios) (log2 ratio difference); higher = more soluble in mitosis
HeLa Kyoto [4] = experiment: thermal stability score vs G1/S (z-score of summed log2 fold changes over temperatures); higher = more thermally stable than in G1/S
[5] = cell cycle stage: early G1 (4.5 h after nocodazole release)
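For melting temperature (median over replicates), in situ in this document: HeLa Kyoto cells synchronized by double thymidine or nocodazole block, proteins quantified by TMT10plex mass spectrometry, three independent biological replicates.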
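For solubility change mitosis vs G1/S (difference of NP-40 vs SDS log2 ratios) in this document: synchronized HeLa Kyoto cells (double thymidine block for G1/S, nocodazole release for mitosis), protein amounts in NP-40 versus SDS lysates quantified by mass spectrometry, three biological replicates.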
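For solubility in G1/S (NP-40 vs SDS abundance) in this document: HeLa Kyoto cells arrested at G1/S by double thymidine block, proteins quantified by TMT10plex mass spectrometry in mild NP-40 versus SDS extracts, three biological replicates.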
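For thermal stability score vs G1/S (z-score of summed log2 fold changes over temperatures) in this document: synchronized HeLa Kyoto cells, proteins quantified by TMT10plex mass spectrometry, three biological replicates, mitosis taken 0.5 h after nocodazole release, G1/S directly after double thymidine block.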

Row | Substance | solubility in G1/S (log2) (HeLa Kyoto [1]) | melting temperature (HeLa Kyoto [2]; cell cycle stage: mitosis) | solubility change mitosis (log2) (HeLa Kyoto [3]) | thermal stability score (HeLa Kyoto [4]; [5]) | thermal stability score (HeLa Kyoto [4]; cell cycle stage: mitosis) | melting temperature (HeLa Kyoto [2]; cell cycle stage: G1/S)
1 | MAAAGPSTRASSAAAAAALSRRGRRGRCDETAAAKTGAPGPASGPSLLVLSPPLLQPPLPPRPEESGCAGCLEPPGEAAALPCGHSLCRGCAQRAADAAGPGCPRCRARGPGWARRRARDDGQADSEVLGECARRSQPERCRPRRDGGAAAAGPRPEQEPRAAPAEPDFIFRAPIKLSKPGELREEYESLRKLREEKLQEEKPSEDQIHKLLPEDTETGKRKMDEQKKRDEPLVLKTNLERCPARLSDSENEEPSRGQMTQTHRSAFVSKNNSYSLAFLAGKLNSKVERSQSCSDTAQERAKSRVRAVPGNKAKVTTMTPASNPIIGVLLSTQNNRCVSAPDLTIEKRLPFSSLSSLASLHKPERSVSPESNDSISEELNHFKPIVCSPCTPPKRLPDGRVLSPLIIKSTPRNLNRSLQKQTSYEASPRILKKWEQIFQERQIKKTLSKATLTSLAPEMGEELLGSEGIHSSKEKPLVAVNTRLSGGQVLSEYTGPTSADLDHFPSVSQTKAEQDSDNKSSTEIPLETCCSSELKGGGSGTSLEREQFEGLGSTPDAKLDKTCISRAMKITTVNSVLPQNSVLGGVLKTKQQLKTLNHFDLTNGVLVESLSEEPLPSLRRGRKRHCKTKHLEQNGSLKKLRQTSGEVGLAPTDPVLREMEQKLQQEEEDRQLALQLQRMFDNERRTVSRRKGSVDQYLLRSSNMAGAK [RNF169] | -0.158 | 51.8 °C | 0.36 | 0.359 | 0.101 | –
2 | ARHGAP35 | -0.0977 | 49.4 °C | -0.124 | 1.69 | 3.46 | 48.6 °C
3 | MTAEEMKATESGAQSAPLPMEGVDISPKQDEGVLKVIKREGTGTEMPMIGDRVFVHYTGWLLDGTKFDSSLDRKDKFSFDLGKGEVIKAWDIAIATMKVGEVCHITCKPEYAYGSAGSPPKIPPNATLVFEVELFEFKGEDLTEEEDGGIIRRIQTRGEGYAKPNEGAIVEVALEGYYKDKLFDQRELRFEIGEGENLDLPYGLERAIQRMEKGEHSIVYLKPSYAFGSVGKEKFQIPPNAELKYELHLKSFEKAKESWEMNSEEKLEQSTIVKERGTVYFKEGKYKQALLQYKKIVSWLEYESSFSNEEAQKAQALRLASHLNLAMCHLKLQAFSAAIESCNKALELDSNNEKGLFRRGEAHLAVNDFELARADFQKVLQLYPNNKAAKTQLAVCQQRIRRQLAREKKLYANMFERLAEEENKAKAEASSGDHPTDTEMKEEQKSNTAGSQSQVETEA [FKBP4] | 0.197 | 50.1 °C | -0.129 | 1.07 | 1.03 | 50 °C
4 | MWRCGGRQGLCVLRRLSGGHAHHRAWRWNSNRACERALQYKLGDKIHGFTVNQVTSVPELFLTAVKLTHDDTGARYLHLAREDTNNLFSVQFRTTPMDSTGVPHILEHTVLCGSQKYPCRDPFFKMLNRSLSTFMNAFTASDYTLYPFSTQNPKDFQNLLSVYLDATFFPCLRELDFWQEGWRLEHENPSDPQTPLVFKGVVFNEMKGAFTDNERIFSQHLQNRLLPDHTYSVVSGGDPLCIPELTWEQLKQFHATHYHPSNARFFTYGNFPLEQHLKQIHEEALSKFQKIEPSTVVPAQTPWDKPREFQITCGPDSFATDPSKQTTISVSFLLPDITDTFEAFTLSLLSSLLTSGPNSPFYKALIESGLGTDFSPDVGYNGYTREAYFSVGLQGIAEKDIETVRSLIDRTIDEVVEKGFEDDRIEALLHKIEIQMKHQSTSFGLMLTSYIASCWNHDGDPVELLKLGNQLAKFRQCLQENPKFLQEKVKQYFKNNQHKLTLSMRPDDKYHEKQAQVEATKLKQKVEALSPGDRQQIYEKGLELRSQQSKPQDASCLPALKVSDIEPTIPVTELDVVLTAGDIPVQYCAQPTNGMVYFRAFSSLNTLPEELRPYVPLFCSVLTKLGCGLLDYREQAQQIELKTGGMSASPHVLPDDSHMDTYEQGVLFSSLCLDRNLPDMMQLWSEIFNNPCFEEEEHFKVLVKMTAQELANGIPDSGHLYASIRAGRTLTPAGDLQETFSGMDQVRLMKRIAEMTDIKPILRKLPRIKKHLLNGDNMRCSVNATPQQMPQTEKAVEDFLRSIGRSKKERRPVRPHTVEKPVPSSSGGDAHVPHGSQVIRKLVMEPTFKPWQMKTHFLMPFPVNYVGECIRTVPYTDPDHASLKILARLMTAKFLHTEIREKGGAYGGGAKLSHNGIFTLYSYRDPNTIETLQSFGKAVDWAKSGKFTQQDIDEAKLSVFSTVDAPVAPSDKGMDHFLYGLSDEMKQAHREQLFAVSHDKLLAVSDRYLGTGKSTHGLAILGPENPKIAKDPSWIIQ [PITRM1] | 0.143 | 50.9 °C | -0.084 | 0.343 | -0.944 | 51.4 °C
5 | MSVPSALMKQPPIQSTAGAVPVRNEKGEISMEKVKVKRYVSGKRPDYAPMESSDEEDEEFQFIKKAKEQEAEPEEQEEDSSSDPRLRRLQNRISEDVEERLARHRKIVEPEVVGESDSEVEGDAWRMEREDSSEEEEEEIDDEEIERRRGMMRQRAQERKNEEMEVMEVEDEGRSGEESESESEYEEYTDSEDEMEPRLKPVFIRKKDRVTVQEREAEALKQKELEQEAKRMAEERRKYTLKIVEEETKKELEENKRSLAALDALNTDDENDEEEYEAWKVRELKRIKRDREDREALEKEKAEIERMRNLTEEERRAELRANGKVITNKAVKGKYKFLQKYYHRGAFFMDEDEEVYKRDFSAPTLEDHFNKTILPKVMQVKNFGRSGRTKYTHLVDQDTTSFDSAWGQESAQNTKFFKQKAAGVRDVFERPSAKKRKTT [MFAP1] | -0.901 | 54.3 °C | 0.782 | -4 | -4.38 | 57.2 °C
6 | MAMDQVNALCEQLVKAVTVMMDPNSTQRYRLEALKFCEEFKEKCPICVPCGLRLAEKTQVAIVRHFGLQILEHVVKFRWNGMSRLEKVYLKNSVMELIANGTLNILEEENHIKDALSRIVVEMIKREWPQHWPDMLIELDTLSKQGETQTELVMFILLRLAEDVVTFQTLPPQRRRDIQQTLTQNMERIFSFLLNTLQENVNKYQQVKTDTSQESKAQANCRVGVAALNTLAGYIDWVSMSHITAENCKLLEILCLLLNEQELQLGAAECLLIAVSRKGKLEDRKPLMVLFGDVAMHYILSAAQTADGGGLVEKHYVFLKRLCQVLCALGNQLCALLGADSDVETPSNFGKYLESFLAFTTHPSQFLRSSTQMTWGALFRHEILSRDPLLLAIIPKYLRASMTNLVKMGFPSKTDSPSCEYSRFDFDSDEDFNAFFNSSRAQQGEVMRLACRLDPKTSFQMAGEWLKYQLSTFLDAGSVNSCSAVGTGEGSLCSVFSPSFVQWEAMTLFLESVITQMFRTLNREEIPVNDGIELLQMVLNFDTKDPLILSCVLTNVSALFPFVTYRPEFLPQVFSKLFSSVTFETVEESKAPRTRAVRNVRRHACSSIIKMCRDYPQLVLPNFDMLYNHVKQLLSNELLLTQMEKCALMEALVLISNQFKNYERQKVFLEELMAPVASIWLSQDMHRVLSDVDAFIAYVGTDQKSCDPGLEDPCGLNRARMSFCVYSILGVVKRTCWPTDLEEAKAGGFVVGYTSSGNPIFRNPCTEQILKLLDNLLALIRTHNTLYAPEMLAKMAEPFTKALDMLDAEKSAILGLPQPLLELNDSPVFKTVLERMQRFFSTLYENCFHILGKAGPSMQQDFYTVEDLATQLLSSAFVNLNNIPDYRLRPMLRVFVKPLVLFCPPEHYEALVSPILGPLFTYLHMRLSQKWQVINQRSLLCGEDEAADENPESQEMLEEQLVRMLTREVMDLITVCCVSKKGADHSSAPPADGDDEEMMATEVTPSAMAELTDLGKCLMKHEDVCTALLITAFNSLAWKDTLSCQRTTSQLCWPLLKQVLSGTLLADAVTWLFTSVLKGLQMHGQHDGCMASLVHLAFQIYEALRPRYLEIRAVMEQIPEIQKDSLDQFDCKLLNPSLQKVADKRRKDQFKRLIAGCIGKPLGEQFRKEVHIKNLPSLFKKTKPMLETEVLDNDGGGLATIFEP [XPO5] | -0.158 | 48.9 °C | -0.175 | 0.753 | 2.34 | 49 °C
